Test: yeast display, Sf9 membrane polyspecificity reagent, FACS + sequencing; frameworks hold sequencing errors
Method in brief: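 Nanobodies came from a synthetic yeast display library in Saccharomyces cerevisiae BJ5465, induced with galactose for 36–48 hours and stained for 1 hour at 4 °C with 10% biotinylated, detergent-solubilized Sf9 membrane reagent. Cells were enriched on streptavidin microbeads and then FACS-sorted, with low and high (top ~1%) gates set on anti-HA fluorescence for expression and streptavidin fluorescence for reagent binding. Each polyreactivity label reflects the gate a clone came from. Genes were amplified by colony PCR, sequenced by MiSeq 2 × 250 and filtered by CDR length.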

| Sequence | polyreactivity (PSR sort gate) |
| --- | --- |
| QVQLVESGGGLVQAGGSLRLSCAASGNIFTRNAMGWYRQAPGKVRELVASITRGGSTYADSVKGLFTISRDNAKNTVYLQMNSLKPEDTAVYYCAASCYYSSHMDYWGQGTQVTVSS | high polyreactivity |
| QVQLVESRSGIVQAGRSLRLSCAASGSIFGSYVMGWYRQAPGKERELVAAITVRTGTTYYADSVKGRFTISLDNAKNTVYLQMKRLKPEDTAVYYCDSRYGPKYGYWGQGNQVTVSS | high polyreactivity |
| QVQLVESGGGLVQAGGSLRLSCAASGFTFYYYMGCYRQAPGKERELVAAITSGDTTYYADSVKGRFTISRDNAKNTVYLQMNSLKPEDTAVYYCNVDQAIYRWVPWEMDYWGQGTQVTVSS | low polyreactivity |
| QVQLVESGGGLVQAGGSLRLSCAASGITFQKYVMGWYRQAPGKEREFVAAITARGGTTYYADSVKGRFTISRDNAKNTVYLQMNSLKPEDTAVYYCAADLRRFQSYYYWGQGTQVTVSS | high polyreactivity |
| QVQLVDSGVGLVQAGGSLRLSCAASGRIFSVYAMGRYRHAPGKERELVASISSGGSTNYADSVKGRFTISRDNAKNTVYLQMNSLKPEDTAVYYCAADYWYRLFWYYGAPLDYWGLGTQVTVSS | low polyreactivity |
| QVQLVESGGGLVQAGGSLRLSCAASGFIFSLYAMGWYRQAPGKERELVAGISESGGSTYYADSVKGRFTISRDNAKNTVYLQMNSLKPEDTAVYYCNADDTVYFIKAGDYWGQGTQVTVSS | high polyreactivity |
| QVQLVESGVGLVQAGGSLRLSCAASGSTFYYYAMGWYRQAPGKERELVAAISWSGASTFYADSVKGRFTISRDNAKITVYLQMNSLKPEDTAVFYCAARYYGQPQYQPLYYWGQGTQVTVSS | high polyreactivity |
| QVQLVESGGGLVQAGGSLRLSCAASGRIFVFNDMGWYRQAPGKERELVAAISSGGNTYYADSVKGRFTISRDNAKNTVYLQMNSLKPEDTAVYYCAKVSRWSYKGSPYDYWGQGTQVTVSS | high polyreactivity |
| QVHLQERGGGLVQAGGSLRLSCAASGSIFYWPWMGWYRQAPGREREFVATITTGSNTYYADSMKGHLTNSRDNAINTVYLQMISQKPEDTAVYFCAVVGDGEIEHRYWGQGTQVTVSS | high polyreactivity |
| QVQLVDSGGGLVQAGGTLRLSCAASGRTFSSYAMGWYIQAPGKERELVSAISWSGGITYYADSVKVRFTISRDNAKNTVYLQMNSLKPEDTAVYYCAVALTRRKSYEYSGGFWGQGTQVTVSS | high polyreactivity |
| QVQLVESGGGLVQAGGSLRLSCAASGSIFKYYAMGWYRQAPGKERELVAAISSSGGSTYYADSVKWRFTISRDNAKNTVYLQMNSLKPEDTAVYYCNTPYIWKNYDYWGQGTQVTVSS | high polyreactivity |
| QDQLVESGGGLVQAGGSLRLSGAASGRTFRRYAKGWDRQAPGKEREWVATISSGGSTYYADSVKGRFTISRDNAKNTVYLQMNSLKPEDTALYYCAVRYWRAYYRYDYWGQGTQVTVSS | high polyreactivity |
| QVQIVESGGGLVQPGCSLRLSCAASGRIFYGYAMGLYRQSPGKERELVAAITSTRGRTYYADSVKGRFTISRDNAKNTFYLQMNSLKPEDSAVYYCAKRGYTRWGLDYWGQGTQVTVSS | high polyreactivity |
| QVQLVESGGGLVQAGGSLRLSCAASGSTFAYNAMGWYIQAPGKERELVAAISTSGGSTNYADSVKGRFTISRDMSKNTVYLQMNSLKPEVTAVYFCAARPKTPSITRYGYWGQGTHVTVSS | high polyreactivity |
| QVQLVESGGGLVQAGGSLRLSCAASGSIFTTNAMGWYRQAPGKERELVAAISSRGTSTYYADSVKGRFTISRDNAKNTVYLQMNSLKPEDTAVYYCAADYVYASRHFEYWGQGTQVTVSS | high polyreactivity |
| QVQLVDSGGGLVQAGGSLRLSCASSGFIFAVYAMGWYRQAPGKERELVARISWSGGSTYYADSVKGRFTISRDNAKNTVYLQMNSLKPEDTAVNYCWGQGTQVTVSS | low polyreactivity |
| QVQLVESGGGLVQAGGSLRLSCAASGLTFCPNAMGWYRQAPGKEREFVASISISGRTYYADSVKGRFTISRDNAKNTVYLLMNSLKPEDTAVYYCAARYVRSGLYRKYDYWGQGTQVTVSS | high polyreactivity |
| QVQLVHSGGGLVQEGGSLRLSCAASGSIFYSYGMGWYRQAPGKERELVAAITSSGGGTYYADSVKGRFTISRDNAKNNVYLQMNSVKAEDTAVYYCAADDRNYNYYPTFYYWGQGTQVTVSS | low polyreactivity |
| QVHLVESGAGLVQAGGSLRLSCASSGFTFKAYAMGWYRQAPGKERELVAAITKSGGRTFYADSVKGRFTISRDNAKNTVYLQMNSLKPEDTAVYYCAASYTVYYWGQGTKVTVSS | high polyreactivity |
| QVQLVESGGGLVHAGGSLRLSCPADGSTFVLNAIGWYRQAPGKERQLVAGISYGTGSTYYADSVKGRFTISRDHAKNTVYLQMNSLKPEDTAVYYCATDFDGYSIGMYYWGQGNQVTVSS | low polyreactivity |
| QVQLVESGAGLVQAGGSLRLSCAASGSTFKPNVMGWYRQAPGKERELVAAITSTDDRTYYADSVKGRFTISRDNAKNTVYLQMNSLKPEDTAVYYCAVESLRDDFEYDYWGQGTQVTVSS | low polyreactivity |
| QVQLVESGGGLVQAGGSLRLSCAASGSIFQYYAMGWYRQAPGKERELVAVISFSDGSTYYADSVKGRFTISRDNAKNTVYLQMNSLKPEDTAVYYCARRRFSVSRRSYYWGQGTQVTVSS | high polyreactivity |

| Sequence | polyreactivity (PSR sort gate) |
| --- | --- |
| QVQLVESGGGLVQAGGSLRLSFAASGSIFKGYTMGWYIQAPGKEREFVASISRRGGSTYYADSVKGRFTISRDNAKNTVYLQMNSLKPEYTAVYYCAKDYGKAYDYWGQGTQVTVSS | high polyreactivity |
| QVQLVESGGGLVQAGGSLRLSCAASGRILYRYAMGWYRQAPGKERELVAAISYSGGSTSYADSVKGRFTISRDNAKNTVYVQMNSLKPEDTAVYYCAAAYYLLRYKKRYDYWGQGTQVTVSS | high polyreactivity |
| QVQLVESGGGLVQAGGSLRLSCAASGRTFNYYAMGWYRQAPGKERESVAAISWRGGSTYYADSVKGRFTISRDNAKNTVYLQMNSLKPEDTAVYYCNKYFSWRPYSYYYWGQGTQVTVSS | high polyreactivity |
| QVQLVESGGGLVQAGGSLSLTCAASGSSFWPYAMGWYRQAPGKELELVAASTTRDGSTYYADSVKGRFTISRDNAKNTVYLQMISLKTEDTAVYYSAAVVLRDGWWGYYYWGQGTQVTVSS | high polyreactivity |
| QVQLVESGGGLVQAGCSLRLSWAASGNIFKGYAMGWSRQAPGKERELVAAISKSGGSTYYADSVKGRFTISRDNAKNTVYLQMNSLKPEDTAVYYCNTYTYAGYNFWGQGTQVTVSS | high polyreactivity |
| QVQLVESGGGLVQAGGSLRLSCAASGSIFGFNAMGWYRQAPGKERELVAAINGGGTTYYADSVKGRFTISRDNAKNTVYLQMNSLIPEDTAVYYCAATPNGYYYLGYDYWGQGTQVTVSS | low polyreactivity |
| QVQLVESVGGLVQAGGSLRLSCAASGITFPYYAMGWYRQAPGKERELVAAISRGDSTYYADSVKGRFTISRDNAKNTVYLQMNSLKPEDTAVYYCAARYGRYWSSCGSWTPYGYWGQGTQVTVSS | high polyreactivity |
| QVQLVESGGGLVQAGGSLRLSCAASGRIFYSYAMGWYRQAPGKEREFVAAIRWSGGRTYYADSVKGRFTISRDNAKNTVYLQMNSLKPEDTAVYYCAAELYGNNFWDGTTGYDYWGQGTEVTVSS | low polyreactivity |
| QVQLVESGGGLVQAGCSLRLSCAASGSTFYRYAMGWYRQAPGKERELVAAITSGTGTYYADSVKGRFTISRDNAKNTVYLQMNSLKPEDTAVYYCNARRYLRGYWGQGTQVTVSS | low polyreactivity |
| QVQLVESWGGLVQAGGSLRLSCAASGIFYPMGWYTQAPGKERELVAAISSVGSTKYADSVKGRFTISRDNAKNTVYFQINSLKPEDTAVYYSNADVTRASSRYNSWGQGTQVTVSS | low polyreactivity |
| QVQLVESGGGLVQAGGSLRLSCAASGFTSWQYAMGWSIQAPGKERELVAAISVSGASTYYADSVKGRFTISRDNAKNTVYLQMNSLKPEDTAVYYCAAAYVRYPTTRYYYWGQGTQVTVSS | high polyreactivity |
| QVQLVESGGGLVQAGGSLRLSCAASGRTFWVYAMGWYRQAPGKERELVAGISWDDGSTDYADSVKGRFTISRDNAKNTVYLQMNSLKPEDTAVYYCNAGEYYKGYYYWGQGTQVTVSS | low polyreactivity |
| QVQLVESGGGLVQAGGSLRLSCAASGRIFGSNAMGWYRQAPGKERELVATITKNGTSTYYADSVKGRFTISRDNAKNTVYLQMNSLKPEDTAVYYCARAPLRYSSRYEYWGQGTQVTVSS | low polyreactivity |
| QVQLVESRGGLVQAGGSHRLSCAASGSIFGANAMGWYRQAPGKERELVAAITSGSGTNYADSVKGRFTISRDNAKNTVYLQMISLNPEDTAVYYCAAVVLYQGRYDYWGQGTQVTVSS | low polyreactivity |
| QVQLVESGGGLVQAGGSLRLSCAASGIFSIYAMGRYRQAPGKERELVAAITSGGGRTYYADSVKGRFTISRDNAKNTVYLQMNSLKPEDTAVYYCARVQRGDYDYWGQGTQVTVTS | high polyreactivity |
| QVQLVESGGGLVQAGGSLRLSCAASGRTFVRYAMGWYRQAPGKERELVARITSRGTSTYYADSVKGRFTISRDNAKNTVYLQMNSLKPEDTAVYYCNKVRTFRDKSRYDYWGQGTQVTVSS | low polyreactivity |
| QDQLVESGGGIVQAGGTLRLSCAASGRTIGGYDMGWDRQAPGKERQLVAAIRTGGRTNYADSVKGRFTISRDNAKNTVYLQLNSLKPEDTAVYYCNARRRIADPRAGIYDYCGQGTQVTVSS | high polyreactivity |
| QVQLVESGGGLVQAGGSLRLSCAASGSIGVNAMGWYRQAPGKERELVATISNSGGSTYYADSVKGRFTISRDNAKNTVYLQINSLKPEDTAVYYCAVAVTSYSSKKLYYWGQGTQVTVSS | low polyreactivity |
| QGQLVESGGGLVQAGGSLSLSCAASGFTFRYYTMGWYIQAPGKERALVASISRRGGSTYYADSVKGRFTISRDNAMNTVYLQMHSLKPEGTAVYYCNPLSQVFASRAPKFDYWGQGTQVTVSS | high polyreactivity |
| QVQLQESVGGLVQAGGSLRLSCAASGTISPQPAMGWYRPAPGKEREFVAGIDTGAITNYADSVKGRFTISRDNAKNTVYLQMNSLKPEDTAVYYCAVFPAAYDYYERYYTYWGLGTQVTVSS | low polyreactivity |
| QVQLVESGGGLVQAGGSLRLSCAASGIIFNGYAMGWYRQAPGKERELVAAISSSGGRTYYADSVKGRFTISRDNAKNTVYLQMNSLKPEDTAVYYCAADAAGSRVYPYDYWGQGTQVTVSS | high polyreactivity |
